First the molecules themselves.
T1: recombinant human Trop-2-his protein (ACCESSION NO.: NP_002344.2, AA 1-274) (human, UniProt P09758 27-274)
T1 construct: range 27-274; also called recombinant human Trop-2 protein; recombinant human Trop-2 extracellular domain; not shown: his tag
T1 sequence (looked up): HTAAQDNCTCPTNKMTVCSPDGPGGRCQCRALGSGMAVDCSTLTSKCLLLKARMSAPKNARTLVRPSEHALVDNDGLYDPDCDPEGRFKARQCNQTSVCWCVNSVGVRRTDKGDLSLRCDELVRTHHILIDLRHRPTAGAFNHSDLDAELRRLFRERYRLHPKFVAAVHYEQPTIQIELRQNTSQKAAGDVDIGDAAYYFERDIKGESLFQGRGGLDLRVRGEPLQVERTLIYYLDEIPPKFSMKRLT

B1: h4-3-10 (antibody, human IgG1, kappa, V domains shown)
VH: EVQLVQSGPEVKKPGASVKVSCKASGFTFTDYVIGWVRQAPGQGLEWIGEIYLGSGTIYYAEKFKGRVTMTADTSTSTAYMELSSLRSEDTAVYYCARGSIFPFDYWGQGTLVTVSS
VL: DIQLTQSPSSLSASVGDRVTITCSASSSVSYMYWYQQKPGKAPKLLIYDASTLASGVPSRFSGSGSGTDFTLTISSLQPEDFATYYCQQWSSYPYTFGQGTKLEIKR
B2: h4-3-16 (antibody, human IgG1, kappa, V domains shown)
VH: EVQLVQSGPEVKKPGASVKVSCKASGFTFTDYVIGWVRQAPGQGLEWIGEIYLGSGTIYYTEKFKGRVTMTADTSTSTAYMELSSLRSEDTAVYYCARGSIFYFDYWGQGTLVTVSS
VL: DIQLTQSPSSLSASVGDRVTITCSASSSVSYMYWYQQKPGKAPKLLIYDTSTLQSGVPSRFSGSGSGTDFTLTISSLQPEDFATYYCQQWSSYPYTFGQGTKLEIKR
B3: h4-3-12 (antibody, human IgG1, kappa, V domains shown)
VH: EVQLVQSGPEVKKPGASVKVSCKASGFTFTDYVIGWVRQAPGQGLEWIGEIYLGSGTIYYTEKFKGRVTMTADTSTSTAYMELSSLRSEDTAVYYCARGSIFYFDYWGQGTLVTVSS
VL: DIQLTQSPSSLSASVGDRVTITCSASSSVSYMYWYQQKPGKAPKLLIYDASTLASGVPSRFSGSGSGTDFTLTISSLQPEDFATYYCQQWSSYPYTFGQGTKLEIKR
B4: h4-3-18 (antibody, human IgG1, kappa, V domains shown)
VH: EVQLVQSGPEVKKPGASVKVSCKASGFTFTDYVIGWVRQAPGQGLEWIGEIYLGSGTIYYAEKFKGRVTMTADTSTSTAYMELSSLRSEDTAVYYCARGSIFPFDYWGQGTLVTVSS
VL: DIQLTQSPSSLSASVGDRVTITCSASSSVSYMYWYQQKPGKAPKLLIYDTSTLASGVPSRFSGSGSGTDFTLTISSLQPEDFATYYCQQWNSYPYTFGQGTKLEIKR
B5: h4-3-19 (antibody, human IgG1, kappa, V domains shown)
VH: EVQLVQSGPEVKKPGASVKVSCKASGFTFTDYVIGWVRQAPGQGLEWIGEIYLGSGTIYYTQKFKGRVTMTADTSTSTAYMELSSLRSEDTAVYYCARGSIFPFDYWGQGTLVTVSS
VL: DIQLTQSPSSLSASVGDRVTITCSASSSVSYMYWYQQKPGKAPKLLIYDTSTLASGVPSRFSGSGSGTDFTLTISSLQPEDFATYYCQQWNSYPYTFGQGTKLEIKR
B6: h4-3-17 (antibody, human IgG1, kappa, V domains shown)
VH: EVQLVQSGPEVKKPGASVKVSCKASGFTFTDYVIGWVRQAPGQGLEWIGEIYLGSGTIYYTEKFKGRVTMTADTSTSTAYMELSSLRSEDTAVYYCARGSIFPFDYWGQGTLVTVSS
VL: DIQLTQSPSSLSASVGDRVTITCSASSSVSYMYWYQQKPGKAPKLLIYDTSTLASGVPSRFSGSGSGTDFTLTISSLQPEDFATYYCQQWNSYPYTFGQGTKLEIKR
B7: h4-3-15 (antibody, human IgG1, kappa, V domains shown)
VH: EVQLVQSGPEVKKPGASVKVSCKASGFTFTDYVIGWVRQAPGQGLEWIGEIYLGSGTIYYTQKFKGRVTMTADTSTSTAYMELSSLRSEDTAVYYCARGSIFPFDYWGQGTLVTVSS
VL: DIQLTQSPSSLSASVGDRVTITCSASSSVSYMYWYQQKPGKAPKLLIYDTSTLQSGVPSRFSGSGSGTDFTLTISSLQPEDFATYYCQQWSSYPYTFGQGTKLEIKR
B8: h4-3-13 (antibody, human IgG1, kappa, V domains shown)
VH: EVQLVQSGPEVKKPGASVKVSCKASGFTFTDYVIGWVRQAPGQGLEWIGEIYLGSGTIYYTEKFKGRVTMTADTSTSTAYMELSSLRSEDTAVYYCARGSIFPFDYWGQGTLVTVSS
VL: DIQLTQSPSSLSASVGDRVTITCSASSSVSYMYWYQQKPGKAPKLLIYDTSTLQSGVPSRFSGSGSGTDFTLTISSLQPEDFATYYCQQWSSYPYTFGQGTKLEIKR
B9: h4-3-11 (antibody, human IgG1, kappa, V domains shown)
VH: EVQLVQSGPEVKKPGASVKVSCKASGFTFTDYVIGWVRQAPGQGLEWIGEIYLGSGTIYYTQKFKGRVTMTADTSTSTAYMELSSLRSEDTAVYYCARGSIFPFDYWGQGTLVTVSS
VL: DIQLTQSPSSLSASVGDRVTITCSASSSVSYMYWYQQKPGKAPKLLIYDASTLASGVPSRFSGSGSGTDFTLTISSLQPEDFATYYCQQWSSYPYTFGQGTKLEIKR
B10: h4-3-14 (antibody, human IgG1, kappa, V domains shown)
VH: EVQLVQSGPEVKKPGASVKVSCKASGFTFTDYVIGWVRQAPGQGLEWIGEIYLGSGTIYYAEKFKGRVTMTADTSTSTAYMELSSLRSEDTAVYYCARGSIFPFDYWGQGTLVTVSS
VL: DIQLTQSPSSLSASVGDRVTITCSASSSVSYMYWYQQKPGKAPKLLIYDTSTLQSGVPSRFSGSGSGTDFTLTISSLQPEDFATYYCQQWSSYPYTFGQGTKLEIKR
B11: h4-3-20 (antibody, human IgG1, kappa, V domains shown)
VH: EVQLVQSGPEVKKPGASVKVSCKASGFTFTDYVIGWVRQAPGQGLEWIGEIYLGSGTIYYTEKFKGRVTMTADTSTSTAYMELSSLRSEDTAVYYCARGSIFYFDYWGQGTLVTVSS
VL: DIQLTQSPSSLSASVGDRVTITCSASSSVSYMYWYQQKPGKAPKLLIYDTSTLASGVPSRFSGSGSGTDFTLTISSLQPEDFATYYCQQWNSYPYTFGQGTKLEIKR
B12: h11-4-1 (antibody, human IgG1, kappa, V domains shown)
VH: QVQLVQSGAEVKKPGASVKVSCKASGYTFTSYWINWVRQAPGQGLEWMGNIYPSNSYTNYNQKFKDRVTMTRDTSTSTVYMELSSLRSEDTAVYYCARYRSDGFAYWGQGTLVTVSS
VL: EIVLTQSPATLSLSPGERATLSCRASQNIGTSIHWYQQKPGQAPRLLIYFASESISGIPARFSGSGSGTDFTLTISSLEPEDFAVYYCQQSNSWPFTFGGGTKVEIKR
notes: also called CDR grafted antibody 11-4
B13: h11-4-2 (antibody, human IgG1, kappa, V domains shown)
VH: QVQLVQSGAEVKKPGASVKVSCKASGYTFTSYWINWVRQAPGQGLEWMGNIYPSNSYTNYNQKFKDRVTMTRDTSTSTVYMELSSLRSEDTAVYYCSRYRSDGFAYWGQGTLVTVSS
VL: EIVLTQSPATLSLSPGERATLSCRASQNIGTSIHWYQQKPGQAPRLLIYFASESISGIPARFSGSGSGTDFTLTISSLEPEDFAVYYCQQSNSWPFTFGGGTKVEIKR
B14: h11-4-3 (antibody, human IgG1, kappa, V domains shown)
VH: QVQLVQSGAEVKKPGASVKVSCKASGYTFTSYWINWVRQAPGQGLEWMGNIYPSNSYTNYNQKFKDRVTMTRDTSTSTVYMELSSLRSEDTAVYYCASYRSDGFAYWGQGTLVTVSS
VL: EIVLTQSPATLSLSPGERATLSCRASQNIGTSIHWYQQKPGQAPRLLIYFASESISGIPARFSGSGSGTDFTLTISSLEPEDFAVYYCQQSNSWPFTFGGGTKVEIKR
B15: h11-4-6 (antibody, human IgG1, kappa, name in Kabat numbering, V domains shown)
VH: QVQLVQSGAEVKKPGASVKVSCKASGYTFTSYWINWVRQAPGQGLEWMGNIYPSNSYTNYNQKFKDRVTMTRDTSTSTVYMELSSLRSEDTAVYYCSRYRSDGFAYWGQGTLVTVSS
VL: EIVLTQSPATLSLSPGERATLSCRASQNIGTSIHWYQQKPGQAPRLLIEFASESISGIPARFSGSGSGTDFTLTISSLEPEDFAVYYCQQSNSWPFTFGGGTKVEIKR
B16: h11-4-7 (antibody, human IgG1, kappa, name in Kabat numbering, V domains shown)
VH: QVQLVQSGAEVKKPGASVKVSCKASGYTFTSYWINWVRQAPGQGLEWMGNIYPSNSYTNYNQKFKDRVTMTRDTSTSTVYMELSSLRSEDTAVYYCASYRSDGFAYWGQGTLVTVSS
VL: EIVLTQSPATLSLSPGERATLSCRASQNIGTSIHWYQQKPGQAPRLLIEFASESISGIPARFSGSGSGTDFTLTISSLEPEDFAVYYCQQSNSWPFTFGGGTKVEIKR
B17: h11-4-4 (antibody, human IgG1, kappa, V domains shown)
VH: EVQLVQSGAEVKKPGASVKVSCKASGYTFTSYWINWVRQAPGQGLEWMGNIYPSNSYTNYNQKFKDRVTMTRDTSTSTVYMELSSLRSEDTAVYYCSSYRSDGFAYWGQGTLVTVSS
VL: EIVLTQSPATLSLSPGERATLSCRASQNIGTSIHWYQQKPGQAPRLLIYFASESISGIPARFSGSGSGTDFTLTISSLEPEDFAVYYCQQSNSWPFTFGGGTKVEIKR
B18: h11-4-5 (antibody, human IgG1, kappa, name in Kabat numbering, V domains shown)
VH: QVQLVQSGAEVKKPGASVKVSCKASGYTFTSYWINWVRQAPGQGLEWMGNIYPSNSYTNYNQKFKDRVTMTRDTSTSTVYMELSSLRSEDTAVYYCARYRSDGFAYWGQGTLVTVSS
VL: EIVLTQSPATLSLSPGERATLSCRASQNIGTSIHWYQQKPGQAPRLLIEFASESISGIPARFSGSGSGTDFTLTISSLEPEDFAVYYCQQSNSWPFTFGGGTKVEIKR

Results on 18 molecules are retold here after patent US20240092930A1 (MABWELL SHANGHAI BIOSCIENCE, published 2024).

The first assay deals with T1, recombinant human Trop-2-his protein …. Description: BLI, antibody on AHC sensor, Trop-2-his 60 nM. As to the method: (§1) 5-6 days after cell transfection, culture supernatants were purified through ProA affinity chromatography column to obtain different humanized antibodies. Affinities of the obtained antibodies were determined by an assay including capturing Fc fragments of the antibodies with anti-human IgG Fc capture (AHC) biosensors using Octet QKe system instrument from Fortebio. For the assay, each of the humanized antibodies and control antibody Sacituzumab was diluted to 4 μg/ml in PBS, and was allowed to flow through the surface of an AHC biosensor (Cat.: 18-0015, PALL) for 120 s. Recombinant human Trop-2-his protein (ACCESSION NO.: NP_002344.2, AA 1-274) was used as a mobile phase, and its concentration was 60 nM. The binding time was 100 s and the dissociation time was 300 s. When the assay was finished, data from which the response values of blank control had been deducted were fitted to a 1:1 Langmuir binding model using software, and then kinetic constants for antigen-antibody binding were calculated.
Affinities of the antibodies obtained from the combinations of mutants of murine antibody 23-12, chimeric antibody ch4-3 and control antibody Sacituzumab to recombinant human Trop-2-his protein were determined by ForteBio (Table 8).
(In general: BLI is a label-free optical method that tracks binding on a fibre tip over time.)
Regarding B1, the Kd stood at 0.763 nM.

For B2, the Kd came out at 1.53 nM.

On to B3, for which the equilibrium dissociation constant (Kd) worked out at 1.03 nM.

For the molecule B4, the Kd was found to be 0.671 nM.

In the case of B5, the Kd turned out to be 0.599 nM.

On to B6, for which the Kd is 0.542 nM.

Consider B7, for which the Kd turned out to be 0.687 nM.

Turning to B8, the Kd was found to be 0.281 nM.

B9: the Kd is 0.802 nM.

B10: the Kd was found to be 0.571 nM.

As to B11, the Kd was 0.892 nM.

The target is the same in a further assay. Description: BLI, antibody on AHC sensor, Trop-2-his 60 nM. The source holds these as a separate data set. As to the method:
as §1
Affinities of the antibodies obtained from the combinations of mutants of murine antibody 11-4, chimeric antibody ch11-4 and control antibody Sacituzumab to recombinant human Trop-2-his protein were determined by ForteBio (Table 11).
Take B12: the Kd amounted to 2.16 nM.

On to B13, for which the dissociation constant Kd amounted to 0.991 nM.

On to B14, for which the Kd came out at 0.868 nM.

For the molecule B15, the Kd is 0.952 nM.

B16: the Kd is 0.803 nM.

As to B17, the Kd was 0.811 nM.

Turning to B18, the Kd is 1.08 nM.

What is called Kd is the constant that tells how readily two partners part at equilibrium.
